{"source": "paper PMC10145227", "key": {"[1]": {"assay": "fibrin plate lysis area, t-PA standard", "conditions": "control: rDSPAα1"}, "[2]": {"assay": "nanoDSF, F350/F330 ratio and scattering", "conditions": "control: rDSPAα1"}, "[3]": {"assay": "purified protein yield from P. pastoris", "conditions": "control: rDSPAα1"}, "[4]": {"assay": "S-2765 activity after 1 h at 30-90 °C or pH 3-12", "conditions": "control: rDSPAα1"}, "[5]": {"assay": "ELISA time course after dosing", "conditions": "control: rDSPAα1"}, "[6]": {"assay": "thrombus length, dry and wet weight", "conditions": "control: rDSPAα1"}, "[7]": {"assay": "hindlimb vein bleeding time after dosing", "conditions": "control: rDSPAα1"}, "[8]": {"assay": "ELISA, slope of concentration versus time", "conditions": "control: rDSPAα1"}, "[9]": {"assay": "ratio of S-2765 Kcat/Km, fibrin/fibrinogen", "conditions": "control: rDSPAα1"}, "[10]": {"assay": "S-2765 hydrolysis kinetics, fibrin cofactor", "conditions": "control: rDSPAα1"}, "[11]": {"assay": "blood routine examination, 1 h after dosing", "conditions": "glycan gained; control: rDSPAα1"}, "[12]": {"assay": "plasma plasminogen ELISA, slope versus time", "conditions": "control: rDSPAα1"}, "[13]": {"assay": "H&E thrombus section score (higher is worse)", "conditions": "control: rDSPAα1"}, "[14]": {"assay": "recanalization rate, FeCl3 carotid thrombosis", "conditions": "control: rDSPAα1"}, "[15]": {"assay": "S-2765 hydrolysis kinetics, fibrinogen cofactor", "conditions": "control: rDSPAα1"}, "[16]": {"assay": "S-2765 hydrolysis kinetics, no cofactor", "conditions": "glycan lost; control: rDSPAα1"}}, "data": [{"protein": "DSPAα1: ANGlyα1 + U (protein) parent chain: MVNTMKTKLLCVLLLCGAVFSLPRQETYRQLARGSRAYGVACKDEITQMTYRRQESWLRPEVRSKRVEHCQCDRGQARCHTVPVNSCSEPRCFNGGTCWQAVYFSDFVCQCPAGYTGKRCEVDTRATCYEGQGVTYRGTWSTAESRVECINWNSSLLTRRTYNGRMPDAFNLGLGNHNYCRNPNGAPKPWCYVIKAGKFTSESCSVPVCSKATCGLRKYKEPQLHSTGGLFTDITSHPWQAAIFAQNRRSSGERFLCGGILISSCWVLTAAHCFQESYLPDQLKVVLGRTYRVKPGEEEQTFKVKKYIVHKEFDDDTYNNDIALLQLKSDSPQCAQESDSVRAICLPEANLQLPDWTECELSGYGKHKSSSPFYSEQLKEGHVRLYPSSRCAPKFLFNKTVTNNMLCAGDTRSGEIYPNVHDACQGDSGGPLVCMNDNHMTLLGIISWGVGCGEKDVPGVYTKVTNYLGWIRDNMHL", "values": [{"measurement": "enzymatic_activity, percent_of_wt", "setting": "[1]; glycan gained", "result": "decreases"}, {"measurement": "stability_or_folding", "setting": "[2]; glycan gained", "result": "no change"}, {"measurement": "expression_or_secretion, percent_of_wt", "setting": "[3]; glycan gained", "result": "no change"}, {"measurement": "stability_or_folding", "setting": "[4]; glycan gained", "result": "no change"}]}, {"protein": "DSPAα1: ANGlyα1 + 2 (protein) parent chain: MVNTMKTKLLCVLLLCGAVFSLPRQETYRQLARGSRAYGVACKDEITQMTYRRQESWLRPEVRSKRVEHCQCDRGQARCHTVPVNSCSEPRCFNGGTCWQAVYFSDFVCQCPAGYTGKRCEVDTRATCYEGQGVTYRGTWSTAESRVECINWNSSLLTRRTYNGRMPDAFNLGLGNHNYCRNPNGAPKPWCYVIKAGKFTSESCSVPVCSKATCGLRKYKEPQLHSTGGLFTDITSHPWQAAIFAQNRRSSGERFLCGGILISSCWVLTAAHCFQESYLPDQLKVVLGRTYRVKPGEEEQTFKVKKYIVHKEFDDDTYNNDIALLQLKSDSPQCAQESDSVRAICLPEANLQLPDWTECELSGYGKHKSSSPFYSEQLKEGHVRLYPSSRCAPKFLFNKTVTNNMLCAGDTRSGEIYPNVHDACQGDSGGPLVCMNDNHMTLLGIISWGVGCGEKDVPGVYTKVTNYLGWIRDNMHL", "values": [{"measurement": "other: plasma D-dimer course in rats", "setting": "[5]; glycan gained", "result": "changes"}, {"measurement": "other: plasma PAI concentration in rats", "setting": "[5]; glycan gained", "result": "no change"}, {"measurement": "other: plasma α2-AP concentration in rats", "setting": "[5]; glycan gained", "result": "decreases"}, {"measurement": "other: thrombolytic efficacy in rats", "setting": "[6]; glycan gained", "result": "decreases"}, {"measurement": "enzymatic_activity, percent_of_wt", "setting": "[1]; glycan gained", "result": "decreases"}, {"measurement": "stability_or_folding", "setting": "[2]; glycan gained", "result": "no change"}, {"measurement": "expression_or_secretion, percent_of_wt", "setting": "[3]; glycan gained", "result": "no change"}, {"measurement": "other: bleeding time in rats", "setting": "[7]; glycan gained", "result": "no change"}, {"measurement": "other: plasma FDP rise in rats", "setting": "[8]; glycan gained", "result": "increases"}, {"measurement": "other: fibrin selectivity, other: ratio Fbn/Fbg", "setting": "[9]; glycan gained", "result": "decreases, 13.100 vs 20.800"}, {"measurement": "enzymatic_activity, kcat_Km", "setting": "[10]; glycan gained", "result": "decreases, 3257.040 ± 561.250 vs 5883.440 ± 983.570, The Kcat/Km of ANGlyα1 + 2 was 79% of rDSPAα1 when fibrin was used as a cofactor"}, {"measurement": "other: platelet count in rats, other: PLT", "setting": "[11]", "result": "no change, 712.667 ± 16.010 vs 724.333 ± 50.817"}, {"measurement": "other: plasminogen activation in rats", "setting": "[12]; glycan gained", "result": "decreases"}, {"measurement": "other: thrombolytic efficacy in rats, other: total score", "setting": "[13]; glycan gained", "result": "decreases, 92.500 ± 1.049 vs 61.667 ± 1.966"}, {"measurement": "other: thrombolytic efficacy in rats, other: recanalized rats", "setting": "[14]; glycan gained", "result": "decreases, 3/8 vs 4/8"}, {"measurement": "enzymatic_activity, kcat_Km", "setting": "[15]; glycan gained", "result": "decreases, 248.960 ± 6.330 vs 282.240 ± 13.070"}, {"measurement": "stability_or_folding", "setting": "[4]; glycan gained", "result": "no change"}]}, {"protein": "DSPAα1: QNGlyα1 (protein) parent chain: MVNTMKTKLLCVLLLCGAVFSLPRQETYRQLARGSRAYGVACKDEITQMTYRRQESWLRPEVRSKRVEHCQCDRGQARCHTVPVNSCSEPRCFNGGTCWQAVYFSDFVCQCPAGYTGKRCEVDTRATCYEGQGVTYRGTWSTAESRVECINWNSSLLTRRTYNGRMPDAFNLGLGNHNYCRNPNGAPKPWCYVIKAGKFTSESCSVPVCSKATCGLRKYKEPQLHSTGGLFTDITSHPWQAAIFAQNRRSSGERFLCGGILISSCWVLTAAHCFQESYLPDQLKVVLGRTYRVKPGEEEQTFKVKKYIVHKEFDDDTYNNDIALLQLKSDSPQCAQESDSVRAICLPEANLQLPDWTECELSGYGKHKSSSPFYSEQLKEGHVRLYPSSRCAPKFLFNKTVTNNMLCAGDTRSGEIYPNVHDACQGDSGGPLVCMNDNHMTLLGIISWGVGCGEKDVPGVYTKVTNYLGWIRDNMHL", "values": [{"measurement": "other: plasma D-dimer course in rats", "setting": "[5]; glycan lost", "result": "increases"}, {"measurement": "other: plasma α2-AP concentration in rats", "setting": "[5]; glycan lost", "result": "no change"}, {"measurement": "other: thrombolytic efficacy in rats", "setting": "[6]; glycan lost", "result": "abolishes"}, {"measurement": "enzymatic_activity, percent_of_wt", "setting": "[1]; glycan lost", "result": "abolishes"}, {"measurement": "stability_or_folding", "setting": "[2]; glycan lost", "result": "no change"}, {"measurement": "expression_or_secretion, percent_of_wt", "setting": "[3]; glycan lost", "result": "decreases"}, {"measurement": "other: bleeding time in rats", "setting": "[7]; glycan lost", "result": "increases"}, {"measurement": "other: plasma FDP rise in rats", "setting": "[8]; glycan lost", "result": "decreases"}, {"measurement": "other: fibrin selectivity, other: ratio Fbn/Fbg", "setting": "[9]; glycan lost", "result": "decreases, 0.700 vs 20.800"}, {"measurement": "other: plasminogen activation in rats", "setting": "[12]; glycan lost", "result": "abolishes"}, {"measurement": "other: thrombolytic efficacy in rats, other: total score", "setting": "[13]; glycan lost", "result": "decreases, 103.333 ± 0.816 vs 61.667 ± 1.966"}, {"measurement": "other: thrombolytic efficacy in rats, other: recanalized rats", "setting": "[14]; glycan lost", "result": "abolishes, 0/8 vs 4/8"}, {"measurement": "stability_or_folding", "setting": "[4]; glycan lost", "result": "no change"}]}, {"protein": "DSPAα1: QNGlyα1-2 (protein) parent chain: MVNTMKTKLLCVLLLCGAVFSLPRQETYRQLARGSRAYGVACKDEITQMTYRRQESWLRPEVRSKRVEHCQCDRGQARCHTVPVNSCSEPRCFNGGTCWQAVYFSDFVCQCPAGYTGKRCEVDTRATCYEGQGVTYRGTWSTAESRVECINWNSSLLTRRTYNGRMPDAFNLGLGNHNYCRNPNGAPKPWCYVIKAGKFTSESCSVPVCSKATCGLRKYKEPQLHSTGGLFTDITSHPWQAAIFAQNRRSSGERFLCGGILISSCWVLTAAHCFQESYLPDQLKVVLGRTYRVKPGEEEQTFKVKKYIVHKEFDDDTYNNDIALLQLKSDSPQCAQESDSVRAICLPEANLQLPDWTECELSGYGKHKSSSPFYSEQLKEGHVRLYPSSRCAPKFLFNKTVTNNMLCAGDTRSGEIYPNVHDACQGDSGGPLVCMNDNHMTLLGIISWGVGCGEKDVPGVYTKVTNYLGWIRDNMHL", "values": [{"measurement": "enzymatic_activity, percent_of_wt", "setting": "[1]; glycan lost", "result": "decreases"}, {"measurement": "stability_or_folding", "setting": "[2]; glycan lost", "result": "no change"}, {"measurement": "expression_or_secretion, percent_of_wt", "setting": "[3]; glycan lost", "result": "decreases"}, {"measurement": "other: fibrin selectivity, other: ratio Fbn/Fbg", "setting": "[9]; glycan lost", "result": "decreases, 8.500 vs 20.800"}, {"measurement": "stability_or_folding", "setting": "[4]; glycan lost", "result": "no change"}]}, {"protein": "DSPAα1: QNGlyα1-1 (protein) parent chain: MVNTMKTKLLCVLLLCGAVFSLPRQETYRQLARGSRAYGVACKDEITQMTYRRQESWLRPEVRSKRVEHCQCDRGQARCHTVPVNSCSEPRCFNGGTCWQAVYFSDFVCQCPAGYTGKRCEVDTRATCYEGQGVTYRGTWSTAESRVECINWNSSLLTRRTYNGRMPDAFNLGLGNHNYCRNPNGAPKPWCYVIKAGKFTSESCSVPVCSKATCGLRKYKEPQLHSTGGLFTDITSHPWQAAIFAQNRRSSGERFLCGGILISSCWVLTAAHCFQESYLPDQLKVVLGRTYRVKPGEEEQTFKVKKYIVHKEFDDDTYNNDIALLQLKSDSPQCAQESDSVRAICLPEANLQLPDWTECELSGYGKHKSSSPFYSEQLKEGHVRLYPSSRCAPKFLFNKTVTNNMLCAGDTRSGEIYPNVHDACQGDSGGPLVCMNDNHMTLLGIISWGVGCGEKDVPGVYTKVTNYLGWIRDNMHL", "values": [{"measurement": "enzymatic_activity, percent_of_wt", "setting": "[1]; glycan lost", "result": "decreases"}, {"measurement": "enzymatic_activity, kcat_Km", "setting": "[16]", "result": "no change, 38.800 ± 0.780 vs 34.830 ± 2.350"}, {"measurement": "stability_or_folding", "setting": "[2]; glycan lost", "result": "no change"}, {"measurement": "expression_or_secretion, percent_of_wt", "setting": "[3]; glycan lost", "result": "decreases"}, {"measurement": "other: fibrin selectivity, other: ratio Fbn/Fbg", "setting": "[9]; glycan lost", "result": "decreases, 1.100 vs 20.800"}, {"measurement": "enzymatic_activity, kcat_Km", "setting": "[10]; glycan lost", "result": "decreases, 333.760 ± 20.680 vs 5883.440 ± 983.570"}, {"measurement": "enzymatic_activity, kcat_Km", "setting": "[15]; glycan lost", "result": "no change, 292.580 ± 1.780 vs 282.240 ± 13.070"}, {"measurement": "stability_or_folding", "setting": "[4]; glycan lost", "result": "no change"}]}]}
